The values below come from patent US20210139548A1 (published 2021).

For orientation: Ki means the equilibrium dissociation constant of an inhibitor or competing ligand from its target. Read a low Ki as higher affinity.

*1 amine or outer side, *2 acyl side, *3 side chain or, on linkers, in order; H or OH if unused. Side-chain parts run from the residue outwards. The star is where a group is joined. C18 diacid = O=C(O)CCCCCCCCCCCCCCCCC(=O)*; γGlu = O=C(O)[C@H](CCC(=O)[*:2])N[*:1]; Isovaleryl = CC(C)CC(=O)*; AEEA = NCCOCCOCC(=O)O

To fix the notation:
T1: human neuropeptide Y2 receptor (human, UniProt P49146 1-381)
T1 construct: whole, on cells; also called hNPY2 receptor; hNPY2-R
T1 sequence (looked up): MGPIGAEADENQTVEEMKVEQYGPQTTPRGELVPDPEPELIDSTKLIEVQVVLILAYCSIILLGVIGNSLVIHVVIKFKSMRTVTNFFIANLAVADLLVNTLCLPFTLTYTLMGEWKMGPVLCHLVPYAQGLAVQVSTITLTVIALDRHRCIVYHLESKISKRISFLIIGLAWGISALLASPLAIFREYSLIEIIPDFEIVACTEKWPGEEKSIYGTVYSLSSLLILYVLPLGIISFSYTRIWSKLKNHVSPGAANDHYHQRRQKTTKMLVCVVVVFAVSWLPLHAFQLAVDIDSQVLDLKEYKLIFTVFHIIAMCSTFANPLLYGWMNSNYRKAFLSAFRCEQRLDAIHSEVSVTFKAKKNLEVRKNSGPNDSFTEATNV

B1: Compound 205 (peptide)
peptide: Isovaleryl-APEK([AEEA-AEEA-γGlu-C18 diacid])PEEEASPEELQKYYVSLRHYYNWLTRQRY-NH2
SMILES: CC(C)CC(=O)N[C@@H](C)C(=O)N1CCC[C@H]1C(=O)N[C@@H](CCC(=O)O)C(=O)N[C@@H](CCCCNC(=O)COCCOCCNC(=O)COCCOCCNC(=O)CC[C@H](NC(=O)CCCCCCCCCCCCCCCCC(=O)O)C(=O)O)C(=O)N1CCC[C@H]1C(=O)N[C@@H](CCC(=O)O)C(=O)N[C@@H](CCC(=O)O)C(=O)N[C@@H](CCC(=O)O)C(=O)N[C@@H](C)C(=O)N[C@@H](CO)C(=O)N1CCC[C@H]1C(=O)N[C@@H](CCC(=O)O)C(=O)N[C@@H](CCC(=O)O)C(=O)N[C@@H](CC(C)C)C(=O)N[C@@H](CCC(N)=O)C(=O)N[C@@H](CCCCN)C(=O)N[C@@H](Cc1ccc(O)cc1)C(=O)N[C@@H](Cc1ccc(O)cc1)C(=O)N[C@H](C(=O)N[C@@H](CO)C(=O)N[C@@H](CC(C)C)C(=O)N[C@@H](CCCNC(=N)N)C(=O)N[C@@H](Cc1c[nH]cn1)C(=O)N[C@@H](Cc1ccc(O)cc1)C(=O)N[C@@H](Cc1ccc(O)cc1)C(=O)N[C@@H](CC(N)=O)C(=O)N[C@@H](Cc1c[nH]c2ccccc12)C(=O)N[C@@H](CC(C)C)C(=O)N[C@H](C(=O)N[C@@H](CCCNC(=N)N)C(=O)N[C@@H](CCC(N)=O)C(=O)N[C@@H](CCCNC(=N)N)C(=O)N[C@@H](Cc1ccc(O)cc1)C(N)=O)[C@@H](C)O)C(C)C
B2: Compound 209 (peptide)
peptide: Isovaleryl-APEK([AEEA-AEEA-γGlu-C18 diacid])PEEDSEPEELQRYYVSLRHYYNWLTRQRY-NH2
SMILES: CC(C)CC(=O)N[C@@H](C)C(=O)N1CCC[C@H]1C(=O)N[C@@H](CCC(=O)O)C(=O)N[C@@H](CCCCNC(=O)COCCOCCNC(=O)COCCOCCNC(=O)CC[C@H](NC(=O)CCCCCCCCCCCCCCCCC(=O)O)C(=O)O)C(=O)N1CCC[C@H]1C(=O)N[C@@H](CCC(=O)O)C(=O)N[C@@H](CCC(=O)O)C(=O)N[C@@H](CC(=O)O)C(=O)N[C@@H](CO)C(=O)N[C@@H](CCC(=O)O)C(=O)N1CCC[C@H]1C(=O)N[C@@H](CCC(=O)O)C(=O)N[C@@H](CCC(=O)O)C(=O)N[C@@H](CC(C)C)C(=O)N[C@@H](CCC(N)=O)C(=O)N[C@@H](CCCNC(=N)N)C(=O)N[C@@H](Cc1ccc(O)cc1)C(=O)N[C@@H](Cc1ccc(O)cc1)C(=O)N[C@H](C(=O)N[C@@H](CO)C(=O)N[C@@H](CC(C)C)C(=O)N[C@@H](CCCNC(=N)N)C(=O)N[C@@H](Cc1c[nH]cn1)C(=O)N[C@@H](Cc1ccc(O)cc1)C(=O)N[C@@H](Cc1ccc(O)cc1)C(=O)N[C@@H](CC(N)=O)C(=O)N[C@@H](Cc1c[nH]c2ccccc12)C(=O)N[C@@H](CC(C)C)C(=O)N[C@H](C(=O)N[C@@H](CCCNC(=N)N)C(=O)N[C@@H](CCC(N)=O)C(=O)N[C@@H](CCCNC(=N)N)C(=O)N[C@@H](Cc1ccc(O)cc1)C(N)=O)[C@@H](C)O)C(C)C
B3: Compound 212 (peptide)
peptide: Isovaleryl-APEK([AEEA-AEEA-γGlu-C18 diacid])PEEDTAPEELQRYYVSLRHYYNWLTRQRY-NH2
SMILES: CC(C)CC(=O)N[C@@H](C)C(=O)N1CCC[C@H]1C(=O)N[C@@H](CCC(=O)O)C(=O)N[C@@H](CCCCNC(=O)COCCOCCNC(=O)COCCOCCNC(=O)CC[C@H](NC(=O)CCCCCCCCCCCCCCCCC(=O)O)C(=O)O)C(=O)N1CCC[C@H]1C(=O)N[C@@H](CCC(=O)O)C(=O)N[C@@H](CCC(=O)O)C(=O)N[C@@H](CC(=O)O)C(=O)N[C@H](C(=O)N[C@@H](C)C(=O)N1CCC[C@H]1C(=O)N[C@@H](CCC(=O)O)C(=O)N[C@@H](CCC(=O)O)C(=O)N[C@@H](CC(C)C)C(=O)N[C@@H](CCC(N)=O)C(=O)N[C@@H](CCCNC(=N)N)C(=O)N[C@@H](Cc1ccc(O)cc1)C(=O)N[C@@H](Cc1ccc(O)cc1)C(=O)N[C@H](C(=O)N[C@@H](CO)C(=O)N[C@@H](CC(C)C)C(=O)N[C@@H](CCCNC(=N)N)C(=O)N[C@@H](Cc1c[nH]cn1)C(=O)N[C@@H](Cc1ccc(O)cc1)C(=O)N[C@@H](Cc1ccc(O)cc1)C(=O)N[C@@H](CC(N)=O)C(=O)N[C@@H](Cc1c[nH]c2ccccc12)C(=O)N[C@@H](CC(C)C)C(=O)N[C@H](C(=O)N[C@@H](CCCNC(=N)N)C(=O)N[C@@H](CCC(N)=O)C(=O)N[C@@H](CCCNC(=N)N)C(=O)N[C@@H](Cc1ccc(O)cc1)C(N)=O)[C@@H](C)O)C(C)C)[C@@H](C)O
B4: Compound 210 (peptide)
peptide: Isovaleryl-APEK([AEEA-AEEA-γGlu-C18 diacid])IEEEASPEELQRYYVSLRHYYNWLTRQRY-NH2
SMILES: CC[C@H](C)[C@H](NC(=O)[C@H](CCCCNC(=O)COCCOCCNC(=O)COCCOCCNC(=O)CC[C@H](NC(=O)CCCCCCCCCCCCCCCCC(=O)O)C(=O)O)NC(=O)[C@H](CCC(=O)O)NC(=O)[C@@H]1CCCN1C(=O)[C@H](C)NC(=O)CC(C)C)C(=O)N[C@@H](CCC(=O)O)C(=O)N[C@@H](CCC(=O)O)C(=O)N[C@@H](CCC(=O)O)C(=O)N[C@@H](C)C(=O)N[C@@H](CO)C(=O)N1CCC[C@H]1C(=O)N[C@@H](CCC(=O)O)C(=O)N[C@@H](CCC(=O)O)C(=O)N[C@@H](CC(C)C)C(=O)N[C@@H](CCC(N)=O)C(=O)N[C@@H](CCCNC(=N)N)C(=O)N[C@@H](Cc1ccc(O)cc1)C(=O)N[C@@H](Cc1ccc(O)cc1)C(=O)N[C@H](C(=O)N[C@@H](CO)C(=O)N[C@@H](CC(C)C)C(=O)N[C@@H](CCCNC(=N)N)C(=O)N[C@@H](Cc1c[nH]cn1)C(=O)N[C@@H](Cc1ccc(O)cc1)C(=O)N[C@@H](Cc1ccc(O)cc1)C(=O)N[C@@H](CC(N)=O)C(=O)N[C@@H](Cc1c[nH]c2ccccc12)C(=O)N[C@@H](CC(C)C)C(=O)N[C@H](C(=O)N[C@@H](CCCNC(=N)N)C(=O)N[C@@H](CCC(N)=O)C(=O)N[C@@H](CCCNC(=N)N)C(=O)N[C@@H](Cc1ccc(O)cc1)C(N)=O)[C@@H](C)O)C(C)C
B5: Compound 208 (peptide)
peptide: Isovaleryl-APEK([AEEA-AEEA-γGlu-C18 diacid])PEEDASEEETQRYYVSLRHYYNWLTRQRY-NH2
SMILES: CC(C)CC(=O)N[C@@H](C)C(=O)N1CCC[C@H]1C(=O)N[C@@H](CCC(=O)O)C(=O)N[C@@H](CCCCNC(=O)COCCOCCNC(=O)COCCOCCNC(=O)CC[C@H](NC(=O)CCCCCCCCCCCCCCCCC(=O)O)C(=O)O)C(=O)N1CCC[C@H]1C(=O)N[C@@H](CCC(=O)O)C(=O)N[C@@H](CCC(=O)O)C(=O)N[C@@H](CC(=O)O)C(=O)N[C@@H](C)C(=O)N[C@@H](CO)C(=O)N[C@@H](CCC(=O)O)C(=O)N[C@@H](CCC(=O)O)C(=O)N[C@@H](CCC(=O)O)C(=O)N[C@H](C(=O)N[C@@H](CCC(N)=O)C(=O)N[C@@H](CCCNC(=N)N)C(=O)N[C@@H](Cc1ccc(O)cc1)C(=O)N[C@@H](Cc1ccc(O)cc1)C(=O)N[C@H](C(=O)N[C@@H](CO)C(=O)N[C@@H](CC(C)C)C(=O)N[C@@H](CCCNC(=N)N)C(=O)N[C@@H](Cc1c[nH]cn1)C(=O)N[C@@H](Cc1ccc(O)cc1)C(=O)N[C@@H](Cc1ccc(O)cc1)C(=O)N[C@@H](CC(N)=O)C(=O)N[C@@H](Cc1c[nH]c2ccccc12)C(=O)N[C@@H](CC(C)C)C(=O)N[C@H](C(=O)N[C@@H](CCCNC(=N)N)C(=O)N[C@@H](CCC(N)=O)C(=O)N[C@@H](CCCNC(=N)N)C(=O)N[C@@H](Cc1ccc(O)cc1)C(N)=O)[C@@H](C)O)C(C)C)[C@@H](C)O
B6: Compound 207 (peptide)
peptide: Isovaleryl-APAK([AEEA-AEEA-γGlu-C18 diacid])PEADAEPEELQRYYVSLRHYYNWLTRQRY-NH2
SMILES: CC(C)CC(=O)N[C@@H](C)C(=O)N1CCC[C@H]1C(=O)N[C@@H](C)C(=O)N[C@@H](CCCCNC(=O)COCCOCCNC(=O)COCCOCCNC(=O)CC[C@H](NC(=O)CCCCCCCCCCCCCCCCC(=O)O)C(=O)O)C(=O)N1CCC[C@H]1C(=O)N[C@@H](CCC(=O)O)C(=O)N[C@@H](C)C(=O)N[C@@H](CC(=O)O)C(=O)N[C@@H](C)C(=O)N[C@@H](CCC(=O)O)C(=O)N1CCC[C@H]1C(=O)N[C@@H](CCC(=O)O)C(=O)N[C@@H](CCC(=O)O)C(=O)N[C@@H](CC(C)C)C(=O)N[C@@H](CCC(N)=O)C(=O)N[C@@H](CCCNC(=N)N)C(=O)N[C@@H](Cc1ccc(O)cc1)C(=O)N[C@@H](Cc1ccc(O)cc1)C(=O)N[C@H](C(=O)N[C@@H](CO)C(=O)N[C@@H](CC(C)C)C(=O)N[C@@H](CCCNC(=N)N)C(=O)N[C@@H](Cc1c[nH]cn1)C(=O)N[C@@H](Cc1ccc(O)cc1)C(=O)N[C@@H](Cc1ccc(O)cc1)C(=O)N[C@@H](CC(N)=O)C(=O)N[C@@H](Cc1c[nH]c2ccccc12)C(=O)N[C@@H](CC(C)C)C(=O)N[C@H](C(=O)N[C@@H](CCCNC(=N)N)C(=O)N[C@@H](CCC(N)=O)C(=O)N[C@@H](CCCNC(=N)N)C(=O)N[C@@H](Cc1ccc(O)cc1)C(N)=O)[C@@H](C)O)C(C)C

This test addresses T1, human neuropeptide Y2 receptor. Briefly: radioligand competition (125I-PYY(1-36)), hNPY2R membranes. In outline:
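Commercial human Y2 receptor membranes (0.5 μg protein/well) were incubated with peptide for 2 h at room temperature in 50 mM HEPES, 5 mM MgCl₂, 1 mM CaCl₂, pH 7.4, with 0.2% ovalbumin. Bound radioligand was separated on PEI-soaked GF/C filters and counted by scintillation, and IC₅₀ came from nonlinear sigmoidal regression.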
Regarding B1, the Ki turned out to be 1.9 nM. For the molecule B2, the Ki amounted to 8.07 nM.

In the case of B3, the Ki was 20.3 nM.

B4 showed a Ki of 10.5 nM.

For the molecule B5, the Ki worked out at 3.8 nM. Molecule B6 displayed a Ki of 1.07 nM.
